Data as given in paper PMC5594479, “Identification and immobilization of a novel cold-adapted esterase, and its potential for bioremediation of pyrethroid-contaminated vegetables” (Microbial Cell Factories, 2017).

Substrate: CCCC(=O)Oc1ccc([N+](=O)[O-])cc1
Assay: purified protein
Assay type: biochemical, uncultured microorganism
Conditions: free (soluble) enzyme, potassium phosphate pH 6.5, 18 °C, substrate range printed as 1.0 to 10.0 mM, does not fit the printed Km unit

B1: Est684 (uncultured microorganism) (protein)
chain: MPSGENQFYVDKPSRGENYGAYVADELVEFTRKMFPLSYKKEDTFIAGLSMGGYGALINGLKYHETFSHIGAFSPGLMIDDIASRSELLSVTGWSMDFYGNSFGGIDTIKNSDKDYYYLIDQLLENKKEIPKIYLPIGTDDFLLESVRGFKSFVDKREVPLTYIEDDGGHEWDFWDKYVKNFLEWLPLEEKGNYLNSGNVAEHGFRDADAQKAQAALVAWFEETLKK
notes: E. coli BL21 (DE3); Ni-NTA and Superdex 200; putative triad S103/D167/H203
Km: 6.01 mM | kcat: 417.15 ± 1.51 s⁻¹
